A short description of this series: amyloid nucleation score (Sup35N fusion, yeast selection) (log enrichment); library NNK3; higher = more nucleation; inactive = no reads after selection. The method in brief: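 Plasmid inserts were Illumina-sequenced at input and output from psi-negative yeast expressing Sup35N fused to peptides of 20 random codons. The yeast were induced with 100 μM copper sulfate for 24 hours and grown 7 days at 30°C on medium lacking adenine and uracil, and sequences with under 100 input reads were excluded. Nucleation score is the DiMSum log enrichment of output over input reads, centred on the mode score of non-aggregating sequences.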

± gives the uncertainty stated by the source.

As to IHTQAFMGMFSLHWNHVFDL, the amyloid nucleation score result was “inactive”.

Turning to CELLCFTGLSDYNTGSGVRR, the amyloid nucleation score result was “inactive”.

Consider ANSNVGSLF, for which the amyloid nucleation score entry was “inactive”.

In the case of TLPLTHYVYVVMLKSSSTGC, the amyloid nucleation score entry is “inactive”.

Take NYLFRT: the amyloid nucleation score result was “inactive”.

For the substance NCYDSW, the amyloid nucleation score result is “inactive”.

ILSIHSGFCWWMRGALNGKL had an amyloid nucleation score of 1.45 ± 0.14.

Regarding NAQGVSKWEDTRSNLNRLVV, the amyloid nucleation score entry is “inactive”.

As for HSNECFLGDSSNWWVYWAVR, the amyloid nucleation score entry was “inactive”.

In the case of CMPHG, the amyloid nucleation score result was “inactive”.

Take DSASLGLNLP: the amyloid nucleation score result was “inactive”.

Substance HDNRDDRIVFFARLDHSRRS gave an amyloid nucleation score of 0.626 ± 0.34.

For GIVTLSA, the amyloid nucleation score result is “inactive”.

Regarding YLNNWMSWRRSLRRHIEVVR, the amyloid nucleation score entry was “inactive”.

On to KLRFKLRSLVNNNCGVVTRA, for which the amyloid nucleation score result is “inactive”.

As to IHILTKVWFSCVRRSLS, the amyloid nucleation score result was “inactive”.

Turning to RFRHGDTGSTFRCWCFVS, the amyloid nucleation score entry is “inactive”.

In the case of SYYSSDKMIVSVGLLKRDAK, the amyloid nucleation score entry is “inactive”.

In turn, IYLYYGRTYSTFLWEV came in with an amyloid nucleation score of 0.762 ± 0.12.

As to QFYTDSFLHIIFSWCGPLDQ, the amyloid nucleation score entry was “inactive”.

As to RQGGVNRNSVSMHSHGYRDC, the amyloid nucleation score result is “inactive”.

For VFPLSAY, the amyloid nucleation score entry is “inactive”.

Turning to SVARNSHYATLHKELQHVMY, the amyloid nucleation score entry was “inactive”.

Consider LELVYGKIYSDPSTFRGHLV, for which the amyloid nucleation score result is “inactive”.

Take SYYVICGTLMIIVVYFSSYN: the amyloid nucleation score was determined as 1.02 ± 0.093.

On to KRLQWMYYL, for which the amyloid nucleation score entry is “inactive”.

As to GCFDVPNCVSFQSFRACGKG, the amyloid nucleation score result was “inactive”.

YLIAIG: the amyloid nucleation score entry was “inactive”.

Take RSKRSLCRGLPDMYAWKWSR: the amyloid nucleation score result was “inactive”.

WSVQMNRITDSSLDCMMMH: the amyloid nucleation score entry is “inactive”.

For the substance GMDCNKIRLASSWVYYLTSE, the amyloid nucleation score result is “inactive”.

GNFESVSDRKFSISFHCWHS: the amyloid nucleation score result is “inactive”.

The substance TQYMWAYPNND yielded an amyloid nucleation score of 1.18 ± 0.16.

For the substance TRWGFVCNKTHVLGDMSIGM, the amyloid nucleation score entry is “inactive”.

In the case of HNEHILSQ, the amyloid nucleation score result is “inactive”.

In the case of VYIFLNEEPRVN, the amyloid nucleation score entry was “inactive”.

For TNINSYGLKIESGGWNQLN, the amyloid nucleation score result is “inactive”.

Consider FLRYGCMHYLGRMGLY, for which the amyloid nucleation score is -0.079 ± 0.34.

DGFYYSALLMFLV: the amyloid nucleation score result is “inactive”.

As to PMKGSSMSTPTANIRQ, the amyloid nucleation score is -0.135 ± 1.1.

Turning to FYYDRVTLRGNTNLGDLMHG, the amyloid nucleation score was 1.69 ± 0.076.

Take TTGLFE: the amyloid nucleation score entry was “inactive”.

Regarding TERVCVCVTFVLW, the amyloid nucleation score was determined as 1.23 ± 0.16.

For AYSSVLINLSEYTLGIAVPM, the amyloid nucleation score came out at 0.062 ± 0.75.

In the case of SDKLSFSRDPSVMRVGQVQR, the amyloid nucleation score entry is “inactive”.

As for LGSAGYSSQGLWCLVLRVPL, the amyloid nucleation score entry was “inactive”.

Regarding STLNGGSWVMIYAEDLTS, the amyloid nucleation score result is “inactive”.

LDGQFNNLYMYPSFYQEVAG: the amyloid nucleation score entry is “inactive”.

Turning to RLRFLRT, the amyloid nucleation score result is “inactive”.

Take LSTIIHDFIGCCAVNAQLIG: the amyloid nucleation score entry is “inactive”.

Consider VIVTVVSPTSMRNGDTRMQI, for which the amyloid nucleation score entry was “inactive”.

On to WVSRNTVRGKVMSRCWVVQY, for which the amyloid nucleation score entry was “inactive”.

As to WDLGASYLTGMFWVRIVGLE, the amyloid nucleation score entry was “inactive”.

With PHMNWSYVPQF, the amyloid nucleation score result is “inactive”.

Turning to AHLQVYFSSNVC, the amyloid nucleation score entry was “inactive”.

CSRSSLLLVDWPMVGSDKLL: the amyloid nucleation score result was “inactive”.

With GNIEGVRNVVALTMHVVNWV, the amyloid nucleation score came to 2.2 ± 0.091.

PRSMNLHLTSSVTSCLKSVW: the amyloid nucleation score was -0.707 ± 0.9.

VTFSCLYVFFYRQVIRCFGM came in with an amyloid nucleation score of 0.059 ± 0.26.

LTAVLLTPYSLFGFALWWFV showed an amyloid nucleation score of -0.487 ± 1.4.

Turning to ERDFLF, the amyloid nucleation score result was “inactive”.

On to PVQQSGLVWRLGAIVVC, for which the amyloid nucleation score entry is “inactive”.

With LVLSVWKLKLSGLALIFWYG, the amyloid nucleation score result is “inactive”.

VISGVIVMWYAWMWAGYRVR: the amyloid nucleation score entry is “inactive”.

As to SVLHMWNLRVVLHECYVYHI, the amyloid nucleation score entry was “inactive”.

QQYSTAYYIHGFTKMVGVVA came in with an amyloid nucleation score of 0.298 ± 0.19.

Regarding VCADIVLPQMDLPGSSGREK, the amyloid nucleation score entry was “inactive”.

With LQDMPGNGFPVWVDISFSSY, the amyloid nucleation score entry was “inactive”.

Regarding TSMMSWQSSHCHVYWRTDWV, the amyloid nucleation score is 0.457 ± 0.4.

The substance CTRCVFSIR showed an amyloid nucleation score of -0.056 ± 0.57.

For the substance KSVYMHTGPGKGNRVVEKCM, the amyloid nucleation score entry is “inactive”.

Take IMIGKVLFFGVATRMSVLRL: the amyloid nucleation score entry is “inactive”.

Regarding WSRSACMGEGNLDVFSVWLL, the amyloid nucleation score result is “inactive”.

Turning to YSGFSYVRGLYGSGYVMAQP, the amyloid nucleation score was -0.192 ± 0.52.

As to KWCKKKQFKSLDWLTYDI, the amyloid nucleation score result is “inactive”.

For YSFVAVSSFDREHSRIFGVS, the amyloid nucleation score entry was “inactive”.

Regarding SPFFYFFWPGFR, the amyloid nucleation score entry was “inactive”.

In the case of GVGFQGYVTRGKNRLRDRAQ, the amyloid nucleation score result was “inactive”.

Consider HTLRWE, for which the amyloid nucleation score result is “inactive”.

Take LLDENGGHYSSIRAISDGGI: the amyloid nucleation score entry is “inactive”.

Consider ISMDRYHNTRHSVNRILLTC, for which the amyloid nucleation score result is “inactive”.

With SRFYTL, the amyloid nucleation score result was “inactive”.

On to VLRAGELLF, for which the amyloid nucleation score entry is “inactive”.

As for MLDCF, the amyloid nucleation score entry was “inactive”.

As to VRNRWA, the amyloid nucleation score entry is “inactive”.

For the substance DICLSYIFLL, the amyloid nucleation score is 0.84 ± 0.17.

Regarding FLLVFC, the amyloid nucleation score is -0.021 ± 0.3.

On to DADSMRWNSPGLCH, for which the amyloid nucleation score result is “inactive”.

For EYQLYCVYHLYANLDTVVRT, the amyloid nucleation score entry is “inactive”.

For the substance LDCFCSPVKVTWH, the amyloid nucleation score worked out at 0.146 ± 0.21.

In the case of SSPYDCSVNYLKNVSPRTLY, the amyloid nucleation score entry is “inactive”.

Regarding MYVLLHTSQVL, the amyloid nucleation score result is “inactive”.

In the case of IFSYLEEECDPRWRGPLKPL, the amyloid nucleation score result was “inactive”.

For the substance QVYGINLGSTGNEARYAVRD, the amyloid nucleation score result is “inactive”.

As for VFVSSKTISLSGSLMISPNL, the amyloid nucleation score came out at 1.69 ± 0.086.

In the case of EKWQKDLSNKHVRNAVVAWS, the amyloid nucleation score entry was “inactive”.

As to YIDFVPLVYTRKFDGEETCI, the amyloid nucleation score result is “inactive”.

Turning to TPLITYHQWFLAICEWLDF, the amyloid nucleation score result was “inactive”.

For the origin of these results see the supplement of paper PMC12042874.
